Assay results taken from paper PMC9482650, “Quantitative fragmentomics allow affinity mapping of interactomes” (Nature Communications, 2022).
One block for each binder: values may come before it.

How the values were obtained:
Assay in all cases: holdup assay
Design in all cases: key: below the threshold = too weak to quantify, mostly under pKd 3.1 to 4
Conditions in all cases: plain residues with an end cap or a label only (N-terminal biotin on a linker: ado-ado)
APBA3_1, O96018 = target: T1, APBA3_1, O96018
T1 sequence (O96018 389-490, limits assumed, looked up): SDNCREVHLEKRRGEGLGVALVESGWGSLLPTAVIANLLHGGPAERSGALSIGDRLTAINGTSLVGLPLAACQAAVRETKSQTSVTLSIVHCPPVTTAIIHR

SNTG1, Q9NSN8 = target: T2, SNTG1, Q9NSN8
T2 sequence (Q9NSN8 52-150, limits assumed, looked up): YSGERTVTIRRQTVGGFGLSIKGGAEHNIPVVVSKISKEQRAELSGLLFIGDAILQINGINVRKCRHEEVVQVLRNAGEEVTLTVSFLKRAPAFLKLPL

DVL3, Q92997 = target: T3, DVL3, Q92997
T3 sequence (Q92997 244-331, limits assumed, looked up): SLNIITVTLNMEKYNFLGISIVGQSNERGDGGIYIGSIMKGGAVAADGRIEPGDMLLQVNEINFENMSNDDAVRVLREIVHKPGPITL

MAGI2_4, Q86UL8 = target: MAGI2_4, Q86UL8
MPDZ_5, O75970 = target: T4, MPDZ_5, O75970
T4 sequence (O75970 695-796, limits assumed, looked up): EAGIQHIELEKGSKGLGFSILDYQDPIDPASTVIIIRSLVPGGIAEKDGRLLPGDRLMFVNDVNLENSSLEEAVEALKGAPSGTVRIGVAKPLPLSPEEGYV

GRIP1_3, Q9Y3R0 = target: T5, GRIP1_3, Q9Y3R0
T5 sequence (Q9Y3R0 247-346, limits assumed, looked up): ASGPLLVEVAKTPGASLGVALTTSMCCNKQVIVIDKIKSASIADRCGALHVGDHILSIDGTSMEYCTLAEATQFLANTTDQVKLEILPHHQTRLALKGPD

PCLO, Q9Y6V0 = target: T6, PCLO, Q9Y6V0
T6 sequence (Q9Y6V0 4491-4600, limits assumed, looked up): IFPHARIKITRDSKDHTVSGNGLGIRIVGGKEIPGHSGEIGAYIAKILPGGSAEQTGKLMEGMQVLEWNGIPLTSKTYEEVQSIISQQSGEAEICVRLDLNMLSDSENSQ

PDZD7_3, Q9H5P4 = target: T7, PDZD7_3, Q9H5P4
T7 sequence (Q9H5P4 857-944, limits assumed, looked up): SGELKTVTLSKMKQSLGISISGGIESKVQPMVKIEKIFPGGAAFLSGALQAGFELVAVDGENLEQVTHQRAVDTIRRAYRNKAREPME

LNX2_2, Q8N448 = target: T8, LNX2_2, Q8N448
T8 sequence (Q8N448 334-432, limits assumed, looked up): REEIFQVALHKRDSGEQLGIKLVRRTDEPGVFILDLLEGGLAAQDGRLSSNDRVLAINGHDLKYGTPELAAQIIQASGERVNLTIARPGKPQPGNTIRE

MPDZ_10, O75970 = target: T9, MPDZ_10, O75970
T9 sequence (O75970 1624-1722, limits assumed, looked up): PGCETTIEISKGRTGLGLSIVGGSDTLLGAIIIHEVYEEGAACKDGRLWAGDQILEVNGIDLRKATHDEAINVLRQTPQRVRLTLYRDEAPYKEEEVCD

SHANK1, Q9Y566 = target: T10, SHANK1, Q9Y566
T10 sequence (Q9Y566 658-767, limits assumed, looked up): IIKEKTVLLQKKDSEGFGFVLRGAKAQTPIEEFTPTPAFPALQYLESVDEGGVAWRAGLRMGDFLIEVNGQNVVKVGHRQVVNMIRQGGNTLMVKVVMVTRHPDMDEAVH

LIMK2, P53671 = target: LIMK2, P53671
Inadl_3, Q8NI35 = target: Inadl_3, Q8NI35
LNX1_1, Q8TBB1 = target: LNX1_1, Q8TBB1
PARD3B_1, Q8TEW8 = target: T11, PARD3B_1, Q8TEW8
T11 sequence (Q8TEW8 196-299, limits assumed, looked up): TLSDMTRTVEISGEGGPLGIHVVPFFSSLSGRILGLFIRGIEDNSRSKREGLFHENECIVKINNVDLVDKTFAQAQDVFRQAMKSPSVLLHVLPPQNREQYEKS

DLG4_2, P78352 = target: DLG4_2, P78352
PDZRN4_1, Q6ZMN7 = target: PDZRN4_1, Q6ZMN7
CASK, O14936 = target: CASK, O14936
RADIL, Q96JH8 = target: T12, RADIL, Q96JH8
T12 sequence (Q96JH8 971-1071, limits assumed, looked up): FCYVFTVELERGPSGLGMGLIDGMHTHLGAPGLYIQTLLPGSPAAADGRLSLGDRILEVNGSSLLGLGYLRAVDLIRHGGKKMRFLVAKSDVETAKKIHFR

FRMPD2_3, Q68DX3 = target: FRMPD2_3, Q68DX3
MAGI1_2, Q96QZ7 = target: MAGI1_2, Q96QZ7
SNTA1, Q13424 = target: T13, SNTA1, Q13424
T13 sequence (Q13424 82-180, limits assumed, looked up): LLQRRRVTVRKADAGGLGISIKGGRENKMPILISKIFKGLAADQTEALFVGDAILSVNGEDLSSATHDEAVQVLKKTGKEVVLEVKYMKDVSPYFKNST

GRID2IP_1, A4D2P6 = target: GRID2IP_1, A4D2P6
IL16_1, Q14005 = target: IL16_1, Q14005
Chain of IL16_1, Q14005 (Q14005 210-306): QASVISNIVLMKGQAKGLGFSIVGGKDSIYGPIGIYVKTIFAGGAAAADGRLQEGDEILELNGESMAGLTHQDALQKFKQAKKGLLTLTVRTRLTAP

Chain of MAGI1_2, Q96QZ7 (Q96QZ7 456-580): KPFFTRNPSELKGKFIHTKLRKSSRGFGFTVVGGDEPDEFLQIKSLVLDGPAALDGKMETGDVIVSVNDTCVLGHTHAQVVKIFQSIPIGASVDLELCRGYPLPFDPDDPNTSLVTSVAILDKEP
Chain of FRMPD2_3, Q68DX3 (Q68DX3 1073-1166): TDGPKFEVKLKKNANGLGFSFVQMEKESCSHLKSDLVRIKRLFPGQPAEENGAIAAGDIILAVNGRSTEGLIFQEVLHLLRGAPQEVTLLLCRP
Chain of DLG4_2, P78352 (P78352 155-259): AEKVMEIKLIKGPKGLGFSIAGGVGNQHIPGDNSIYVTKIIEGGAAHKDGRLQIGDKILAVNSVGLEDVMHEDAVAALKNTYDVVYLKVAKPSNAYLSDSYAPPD
Chain of Inadl_3, Q8NI35 (Q8NI35 359-469): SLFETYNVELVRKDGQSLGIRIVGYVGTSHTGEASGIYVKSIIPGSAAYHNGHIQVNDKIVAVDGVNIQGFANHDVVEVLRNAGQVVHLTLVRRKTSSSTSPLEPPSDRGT
Chain of LNX1_1, Q8TBB1 (Q8TBB1 261-371): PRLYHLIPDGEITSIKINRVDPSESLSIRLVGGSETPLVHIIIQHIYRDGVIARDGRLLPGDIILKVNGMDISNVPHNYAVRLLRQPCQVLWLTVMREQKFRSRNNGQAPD
Chain of MAGI2_4, Q86UL8 (Q86UL8 772-865): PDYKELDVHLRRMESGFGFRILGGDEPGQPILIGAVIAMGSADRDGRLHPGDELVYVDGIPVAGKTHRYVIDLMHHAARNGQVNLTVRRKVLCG
Chain of PDZRN4_1, Q6ZMN7 (Q6ZMN7 213-318): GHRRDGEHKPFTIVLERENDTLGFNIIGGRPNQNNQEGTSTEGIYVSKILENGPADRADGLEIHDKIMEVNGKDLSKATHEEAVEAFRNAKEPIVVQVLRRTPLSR
Chain of GRID2IP_1, A4D2P6 (A4D2P6 1-87): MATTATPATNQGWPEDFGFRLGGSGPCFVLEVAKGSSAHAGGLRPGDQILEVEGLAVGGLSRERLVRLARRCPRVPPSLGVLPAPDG
Chain of CASK, O14936 (O14936 487-570): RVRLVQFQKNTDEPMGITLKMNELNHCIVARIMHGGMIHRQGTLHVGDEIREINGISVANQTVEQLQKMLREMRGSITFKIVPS
Chain of LIMK2, P53671 (P53671 143-248): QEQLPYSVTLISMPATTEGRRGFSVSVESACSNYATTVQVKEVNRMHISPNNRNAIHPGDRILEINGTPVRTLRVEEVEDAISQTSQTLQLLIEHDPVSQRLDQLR

pKd (APBA3_1, O96018): below the threshold
pKd (SNTG1, Q9NSN8): below the threshold
pKd (DVL3, Q92997): below the threshold
pKd (MAGI2_4, Q86UL8): below the threshold
pKd (MPDZ_5, O75970): below the threshold
pKd (GRIP1_3, Q9Y3R0): below the threshold
pKd (PCLO, Q9Y6V0): below the threshold
pKd (PDZD7_3, Q9H5P4): below the threshold
pKd (LNX2_2, Q8N448): below the threshold
pKd (MPDZ_10, O75970): below the threshold
pKd (SHANK1, Q9Y566): below the threshold
pKd (LIMK2, P53671): below the threshold
pKd (Inadl_3, Q8NI35): below the threshold
pKd (LNX1_1, Q8TBB1): below the threshold
pKd (PARD3B_1, Q8TEW8): 3.84
pKd (DLG4_2, P78352): below the threshold
pKd (PDZRN4_1, Q6ZMN7): below the threshold
pKd (CASK, O14936): below the threshold
pKd (RADIL, Q96JH8): below the threshold
pKd (FRMPD2_3, Q68DX3): below the threshold
pKd (MAGI1_2, Q96QZ7): below the threshold
pKd (SNTA1, Q13424): below the threshold
pKd (GRID2IP_1, A4D2P6): below the threshold
pKd (IL16_1, Q14005): below the threshold
B1: GRIP1, Q9Y3R0 (peptide)
chain: LETREPTNTL

pKd (APBA3_1, O96018): below the threshold
pKd (SNTG1, Q9NSN8): 4.06
pKd (DVL3, Q92997): 3.65
pKd (MAGI2_4, Q86UL8): 4.53
pKd (MPDZ_5, O75970): 3.56
pKd (GRIP1_3, Q9Y3R0): below the threshold
pKd (PCLO, Q9Y6V0): below the threshold
pKd (PDZD7_3, Q9H5P4): 5.23
pKd (LNX2_2, Q8N448): 5.56
pKd (MPDZ_10, O75970): 3.76
pKd (SHANK1, Q9Y566): 4.04
pKd (LIMK2, P53671): below the threshold
pKd (Inadl_3, Q8NI35): 4.65
pKd (LNX1_1, Q8TBB1): 4.67
pKd (PARD3B_1, Q8TEW8): 4.26
pKd (DLG4_2, P78352): 4.95
pKd (PDZRN4_1, Q6ZMN7): below the threshold
pKd (CASK, O14936): below the threshold
pKd (RADIL, Q96JH8): 5.38
pKd (FRMPD2_3, Q68DX3): 3.53
pKd (MAGI1_2, Q96QZ7): 3.7
pKd (SNTA1, Q13424): 4.61
pKd (GRID2IP_1, A4D2P6): below the threshold
pKd (IL16_1, Q14005): 3.88
B2: TTC24, A2A3L6 (peptide)
chain: PMESGICTIV

pKd (APBA3_1, O96018): below the threshold
pKd (SNTG1, Q9NSN8): 3.5
pKd (DVL3, Q92997): 3.6
pKd (MAGI2_4, Q86UL8): 3.53
pKd (MPDZ_5, O75970): below the threshold
pKd (GRIP1_3, Q9Y3R0): below the threshold
pKd (PCLO, Q9Y6V0): below the threshold
pKd (PDZD7_3, Q9H5P4): below the threshold
pKd (LNX2_2, Q8N448): below the threshold
pKd (MPDZ_10, O75970): below the threshold
pKd (SHANK1, Q9Y566): 3.59
pKd (LIMK2, P53671): below the threshold
pKd (Inadl_3, Q8NI35): below the threshold
pKd (LNX1_1, Q8TBB1): 3.64
pKd (PARD3B_1, Q8TEW8): 3.93
pKd (DLG4_2, P78352): 3.64
pKd (PDZRN4_1, Q6ZMN7): below the threshold
pKd (CASK, O14936): below the threshold
pKd (RADIL, Q96JH8): below the threshold
pKd (FRMPD2_3, Q68DX3): 3.58
pKd (MAGI1_2, Q96QZ7): below the threshold
pKd (SNTA1, Q13424): below the threshold
pKd (GRID2IP_1, A4D2P6): below the threshold
pKd (IL16_1, Q14005): below the threshold
B3: GLA, P06280 (peptide)
chain: TMQMSLKDLL
